The results in this text go back to the nanobody polyreactivity screen of Harvey et al. (2022).

The nature of this data set: yeast display, Sf9 membrane polyspecificity reagent, FACS + sequencing; frameworks hold sequencing errors. The method, boiled down: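 Galactose-induced (36–48 hours) yeast carrying a synthetic nanobody display library were exposed to 10% biotinylated, detergent-solubilized Sf9 membrane reagent at 4 °C for 1 hour. FACS followed streptavidin microbead enrichment, using low and high (top ~1%) gates for expression (anti-HA) and reagent binding (streptavidin). Colony PCR, MiSeq 2 × 250 sequencing and CDR-length filtering followed. Labels for polyreactivity reflect the gate of origin.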
With “QVQLVESGGGLVQAGGSLRLSCAASGRIFLVYAMGWYRQAPGKEREIVASISWSGGSTSYADTVKGLFTISRDNAKNNVSLQMNSLKPEDTAVYYCNAIRRPIFFRGRYYWGQGTQVTVSS”, the “polyreactivity (PSR sort gate)” value was “low polyreactivity”.

Take “QVQLVESGGGLVQAGGSLRLSCAASGRIFLWNAMGWYRQAPGKERELVAAISWSGGSTYYADSVKGRFTISRDNAKNTVYLQMNSLKPEDTAVYYCNRLLSLEYGYWGQGTQVTVSS”: the “polyreactivity (PSR sort gate)” value was “high polyreactivity”.

For “QVQLVESGGGLVQAGGSLRLSCAASGRIFLWYAMGWYRQAPGKERELVAAIWRGGSTYYADSVKGRFTISRDNAKNTVYLQMNSLKPEDTAVYYCNAQRAPHWYYLFDYWGQGTQVTVSS”, the “polyreactivity (PSR sort gate)” value is recorded as “low polyreactivity”.

For “QVQLVESGGGLVQAGGSLRLSCAASGRIFLYYAMGWYRQAPGKERELVAAISRRGASTYYADSVKGRFTITRDNAKNTVYLQMNSLKPEDTAVYYCGSVPGKSGDYWGQGTQVTVSS”, the “polyreactivity (PSR sort gate)” value is “high polyreactivity”.

Turning to “QVQLVESGGGLVQAGGSLRLSCAASGRIFLYYAMGWYRQAPGKERELVATISSGGSTHYADSVKGRFTISRDNAKNTVYLQMNSMKPEDTAVYYCAAYGYGRGLEPSTTEMDYWGQGTQVTVSS”, the “polyreactivity (PSR sort gate)” value is on record as “low polyreactivity”.

Take “QVQLVESGGGLVQAGGSLRLSCAASGRIFMPYAMGWYRQAPGKERELVAAITCTGGSTYYADSVKGRFTISRDNAKNTVYLQMNSPKPEDTAVYYCNARRGYQQHRRDYWGQGTQVTVSS”: the “polyreactivity (PSR sort gate)” value is given as “low polyreactivity”.

“QVQLVESGGGLVQAGGSLRLSCAASGRIFNGNAMGWYRQAPGKERELVAAISYSGGATYYADSVKGRFTISRDNAKNTVYLQMNSLKPEDTAVYYCAAAAWDPKGSRYDYWGQGTQVTVSS”: the “polyreactivity (PSR sort gate)” value is on record as “low polyreactivity”.

In the case of “QVQLVESGGGLVQAGGSLRLSCAASGRIFNINAMGWYRQAPGKERELVAAITWRSGSTYYADSVKGRFTISRDNAKNTVYLQMKSLKPEDTAVYYCAADFSQTRRPIRFYYWGQGTQVTVSS”, the “polyreactivity (PSR sort gate)” value is “high polyreactivity”.

Consider “QVQLVESGGGLVQAGGSLRLSCAASGRIFNLNAMVRYRQAPGKERELVAAISKSGTRTYYADSVKGRFTISRDNAKNTVYLQMYSLKPEDTAVYYCGAEALYYDRLGWVYLRYDYWGQGTQVTVSS”, for which the “polyreactivity (PSR sort gate)” value was “high polyreactivity”.

Turning to “QVQLVESGGGLVQAGGSLRLSCAASGRIFNLYAMGWYRQAPGKERELVAAISWGGGRTYYADSVKGRFTISRDNAKNTVYLQMNSLKPEDTAVYYCNAVYSPRYYVGGYDYWGQGTQVTVSS”, the “polyreactivity (PSR sort gate)” value was “high polyreactivity”.

On to “QVQLVESGGGLVQAGGSLRLSCAASGRIFNLYDMGWYRQAPGKERELVAAITTGGDTTNYADSVKGRFTISRDNAKNTVYLQMNSLKPEDTAVYYCAADDGWIEPVYGYYEHEYWGQGTQVTVSS”, for which the “polyreactivity (PSR sort gate)” value was “low polyreactivity”.

Regarding “QVQLVESGGGLVQAGGSLRLSCAASGRIFNPYAMGWYRQAPGKERELVAAISRGGRTYYADSVKGRFTISRDNAKNTVYLQMNSLKPEDTAVYYCNAGRGLREDDYWGQGTQVTVSS”, the “polyreactivity (PSR sort gate)” value is reported as “low polyreactivity”.

In the case of “QVQLVESGGGLVQAGGSLRLSCAASGRIFNQYGMGWYRQAPGKERELVASITGSGGTTYYADSVKGRFTISRDNAKNTVYLQMNSLKPEDTAVYYCAAVFYGFVGYYNEDYWGQGTQVTVSS”, the “polyreactivity (PSR sort gate)” value is given as “low polyreactivity”.

Take “QVQLVESGGGLVQAGGSLRLSCAASGRIFNRNAKGWYRQAPGKERELVAAISSDTSTNYADSVKGRFTISRDNAKNTVYLQMNCLKPEDTAVYYCATKYGTSNWYNTYYYWGQGTQVTVSS”: the “polyreactivity (PSR sort gate)” value is on record as “low polyreactivity”.

Consider “QVQLVESGGGLVQAGGSLRLSCAASGRIFNRNAMVWSRQAPGKERELVASISSGGRTNYADSVKGRFTISRDNAKNTVYLQMNSLKPEDTAVYYCAAKSPRILLDYWGQGTQVTVSS”, for which the “polyreactivity (PSR sort gate)” value is given as “low polyreactivity”.

For “QVQLVESGGGLVQAGGSLRLSCAASGRIFNRYAMGWYRQAPGKEREFVAAISVRGGTTYYADSVKGRFTISRDNAKNTVYLQMNSLKPEDTAVYYCAARKISKYDYWGQGTQVTVSS”, the “polyreactivity (PSR sort gate)” value is on record as “high polyreactivity”.

As to “QVQLVESGGGLVQAGGSLRLSCAASGRIFNRYAMGWYSQAPGKERELVARITSSGSTNYADSVKGRFTISRDNAKNTVYLQMNSLKPEDTAVYYCAARKLFIPKYYYWGQGTQVTVSS”, the “polyreactivity (PSR sort gate)” value is “high polyreactivity”.

In the case of “QVQLVESGGGLVQAGGSLRLSCAASGRIFNSKAKGWYRQEPGKERELVAAISWSGGTTYYADSVKGRFTISRDNAKNTVYLQMNSLKPEDTAVYYCNADLWTSYFGRGDYWGQGTQVTVSS”, the “polyreactivity (PSR sort gate)” value was “low polyreactivity”.

For “QVQLVESGGGLVQAGGSLRLSCAASGRIFNSNAMGWYRQAPGKERELVAAISSSGTRTYYADSVKGRFTISRDNAKNTVYLQMNSLKPEDTAVYYCNTYYKYAVVPSGGYWGQGTQVTVSS”, the “polyreactivity (PSR sort gate)” value is “high polyreactivity”.

Take “QVQLVESGGGLVQAGGSLRLSCAASGRIFNSNAMGWYRQAPGKERELVAAISWSGGTTYYADSVKGRFTISRDNAKNTVYLQMNSLKPEDTAVYYCNADLWTSYFGRGDYWGQGTQVTVSS”: the “polyreactivity (PSR sort gate)” value is recorded as “low polyreactivity”.

On to “QVQLVESGGGLVQAGGSLRLSCAASGRIFNSYAMGWYRQAPGKERELVAAISRNGGITYYADSVKGRFTISRDNAKNTVYLQMNSLKAEATAVYYCNADSSRRRYSSDYWGQGTQVTVSS”, for which the “polyreactivity (PSR sort gate)” value is “high polyreactivity”.

As to “QVQLVESGGGLVQAGGSLRLSCAASGRIFNVNAMGWYRQAPGKERELVAGITRSGGSTYYADSVKWRFTISRDNAKNTVYLQMNSLNPEDTAVYYCATQATPWYRYYYWGQGTQVTVSS”, the “polyreactivity (PSR sort gate)” value was “high polyreactivity”.

Take “QVQLVESGGGLVQAGGSLRLSCAASGRIFNVYDMGRYRQAPGKERELVAAISSGANTNYADSVKGRFTISRDNAKNTVYLQMNSLKPEDTAVYYCNTEQFYDYDYTFDYWGQGTQVTVSS”: the “polyreactivity (PSR sort gate)” value is on record as “low polyreactivity”.

On to “QVQLVESGGGLVQAGGSLRLSCAASGRIFNWYAMGWYRQEPGKERELVAAISTDGSTYYADSVKGRFTISRDNAKNTVYLQMNSLKPEDTAVYYCAAVPGYTHLWGGPFDYWGQGTQVTVSS”, for which the “polyreactivity (PSR sort gate)” value is “low polyreactivity”.

As to “QVQLVESGGGLVQAGGSLRLSCAASGRIFNYNAMGWYRQAPGKERELVATITYIGTGTYYADSVKGRFTISRDNAKNTVYLQMNSQKPDDTAVYYCAASYRSRVWWRFDYWGQGSQVTVSS”, the “polyreactivity (PSR sort gate)” value is listed as “high polyreactivity”.

“QVQLVESGGGLVQAGGSLRLSCAASGRIFNYYAMGWYRQAPGKERELVAAISKRGGRTYYADSVKGRFTISRDNAKNTVYLQMNSLKPEDTAVYYCNKGFLPSWFTYPYKYYYWGQGTQVTVSS”: the “polyreactivity (PSR sort gate)” value is given as “low polyreactivity”.

Turning to “QVQLVESGGGLVQAGGSLRLSCAASGRIFNYYAMGWYRQAPGKERELVARITVGGRTYYADSVKGRFTISRDNAKNTVYLQMNSLKPEDTAVYYCAAVFPYHFGNMDYWGQGTQVTVSS”, the “polyreactivity (PSR sort gate)” value is recorded as “high polyreactivity”.

As to “QVQLVESGGGLVQAGGSLRLSCAASGRIFPAYTMGWYRQAPGKERELVAAISRGGRTKYADSVKGRFTISRDNANNTVYLQLNSLKPEDTAVYYCDTVTTYGGVWYDYWGQGTQVTVSS”, the “polyreactivity (PSR sort gate)” value was “high polyreactivity”.

In the case of “QVQLVESGGGLVQAGGSLRLSCAASGRIFPAYVRVWYRQAPGKERELVAAISDRGGSTYYADSVKGRFTISRDTAKHTVSLQMHRLKPEDTAVYYCAKGGEVSQGYTDDYDYWGQGTQVSVSS”, the “polyreactivity (PSR sort gate)” value is “low polyreactivity”.

As to “QVQLVESGGGLVQAGGSLRLSCAASGRIFPDYDMGWYRQAPGKERELVAAITQRGGSTYADSVKGRFTISRDNAKNTVYLQMNSLKPEDTAVYYCAREYYEAYEYWGQGTQVTVSS”, the “polyreactivity (PSR sort gate)” value is given as “low polyreactivity”.

For “QVQLVESGGGLVQAGGSLRLSCAASGRIFPDYVMGWYRQAPGKEREFVAIISYSGVRTYYADSVKGRFTISRDNAKNTVYLQMNSLKPEDTAVYYCAADFKQKGHRTRTTYWGQGTQVTVSS”, the “polyreactivity (PSR sort gate)” value is given as “high polyreactivity”.

As to “QVQLVESGGGLVQAGGSLRLSCAASGRIFPENAMGWYRQAPGTERELVAAISKNGGRTYYADSVKGRFTISRDNAKNTVYLQMNSLKPEDTAVYYCNRRVQARRYRYDYWGQGTQVTVSS”, the “polyreactivity (PSR sort gate)” value is on record as “high polyreactivity”.

As to “QVQLVESGGGLVQAGGSLRLSCAASGRIFPFNAMGCYRQAPGKEREFVAAIRLSGTRTYYADSVKGRFTISRDNAKNTVYLQINSLKPDDTAVYYCAAKYSGHYYNYDYWGQGTQVTVSS”, the “polyreactivity (PSR sort gate)” value is given as “high polyreactivity”.

For the sequence “QVQLVESGGGLVQAGGSLRLSCAASGRIFPFYTMGWYRQAPGKERELVAAIRNAGSTKYADSVKGRFTISRDNAKNTVYLQMNSLKPEDTAVYYCNADLTRYRRYYWGQGTQVTVSS”, the “polyreactivity (PSR sort gate)” value is listed as “low polyreactivity”.

As to “QVQLVESGGGLVQAGGSLRLSCAASGRIFPGNALGWYIKAPGKEREFVASINWSVGSTFYADSVKGRFTISRDNAKHTVYLQMNSLKPEDTAVYYCAARTFGYYRSRSFNYWGQGTQVTVSS”, the “polyreactivity (PSR sort gate)” value is listed as “high polyreactivity”.

For the sequence “QVQLVESGGGLVQAGGSLRLSCAASGRIFPGNAMGWYRQAPGKERELVATITESDSSTYYADSVKGRFTISRDNAKNTVYLQMNSLKPDDTAVYYFAAGPSVYWRYDYWGQGTQVTVSS”, the “polyreactivity (PSR sort gate)” value is recorded as “low polyreactivity”.

On to “QVQLVESGGGLVQAGGSLRLSCAASGRIFPGYAMGWYRQAPGKERELVAGISNDASTNYADSVKGRFTISRDNAKNTVYLQMNSLKPEDTAVYYCAAEISYLSVPRYDDWGQGTQVTVSS”, for which the “polyreactivity (PSR sort gate)” value is “low polyreactivity”.

Take “QVQLVESGGGLVQAGGSLRLSCAASGRIFPGYAMGWYRQAPGKERELVASISRTGRTNYADSVKGRFTISRDNAKNTVYLQMNSLKPEDTAVYYCAAEYYHSSYGYGYWGQGTQVTVSS”: the “polyreactivity (PSR sort gate)” value is “low polyreactivity”.

Consider “QVQLVESGGGLVQAGGSLRLSCAASGRIFPKYAMGWYRQAPGKERELVATINSGTRTYADSVKGRFTISRDNAKNTVYLEMNSLKPEDTAVYYCARRGYYYDYWGQGTQVTVSS”, for which the “polyreactivity (PSR sort gate)” value is on record as “high polyreactivity”.

As for “QVQLVESGGGLVQAGGSLRLSCAASGRIFPLYAMGWYRPAPGKERELVADISVTGTSTYYADSVKGRFTISRDNAKNTVYLQMNSLKPEDTAVYYCAADLWAYGPLWRWSRADYDYWGQGTQVTVSS”, the “polyreactivity (PSR sort gate)” value is “low polyreactivity”.

Take “QVQLVESGGGLVQAGGSLRLSCAASGRIFPLYAMGWYRQAPGKERELVAAITSSGGSTYYADSVKGRFTISRDNAKNTVYLQMNSLKPEDTAVYYCAADYSVYWLDYGYWGQGTQVTVSS”: the “polyreactivity (PSR sort gate)” value is “low polyreactivity”.
